B1: DNAJB14-FL-FLAG [human] / DNAJB12-FL-mOrange [human] (parent complex)
chain 1: MEGNRDEAEKCVEIAREALNAGNREKAQRFLQKAEKLYPLPSARALLEIIMKNGSTAGNSPHCRKPSGSGDQSKPNCTKDSTSGSGEGGKGYTKDQVDGVLSINKCKNYYEVLGVTKDAGDEDLKKAYRKLALKFHPDKNHAPGATDAFKKIGNAYAVLSNPEKRKQYDLTGNEEQACNHQNNGRFNFHRGCEADITPEDLFNIFFGGGFPSGSVHSFSNGRAGYSQQHQHRHSGHEREEERGDGGFSVFIQLMPIIVLILVSLLSQLMVSNPPYSLYPRSGTGQTIKMQTENLGVVYYVNKDFKNEYKGMLLQKVEKSVEEDYVTNIRNNCWKERQQKTDMQYAAKVYRDDRLRRKADALSMDNCKELERLTSLYKGG
chain 2: MESNKDEAERCISIALKAIQSNQPDRALRFLEKAQRLYPTPRVRALIESLNQKPQTAGDQPPPTDTTHATHRKAGGTDAPSANGEAGGESTKGYTAEQVAAVKRVKQCKDYYEILGVSRGASDEDLKKAYRRLALKFHPDKNHAPGATEAFKAIGTAYAVLSNPEKRKQYDQFGDDKSQAARHGHGHGDFHRGFEADISPEDLFNMFFGGGFPSSNVHVYSNGRMRYTYQQRQDRRDNQGDGGLGVFVQLMPILILILVSALSQLMVSSPPYSLSPRPSVGHIHRRVTDHLGVVYYVGDTFSEEYTGSSLKTVERNVEDDYIANLRNNCWKEKQQKEGLLYRARYFGDTDMYHRAQKMGTPSCSRLSEVQASLHG

Variants of: B1
Experiment: co-IP (IP: FLAG, WB: mOrange), densitometry with Fiji; HEK293T cells; n = 3 biologically independent samples; parent: 2.7; read off a plot

response | Variant
~7.2 [ORANGE]/[FLAG] | chain 1 MEGNRDEAEKCVEIAREALNAGNREKAQRFLQKAEKLYPLPSARALLEIIMKNGSTAGNSPHCRKPSGSGDQSKPNCTKDSTSGSGEGGKGYTKDQVDGVLSINKCKNYYEVLGVTKDAGDEDLKKAYRKLALKFQPDKNHAPGATDAFKKIGNAYAVLSNPEKRKQYDLTGNEEQACNHQNNGRFNFHRGCEADITPEDLFNIFFGGGFPSGSVHSFSNGRAGYSQQHQHRHSGHEREEERGDGGFSVFIQLMPIIVLILVSLLSQLMVSNPPYSLYPRSGTGQTIKMQTENLGVVYYVNKDFKNEYKGMLLQKVEKSVEEDYVTNIRNNCWKERQQKTDMQYAAKVYRDDRLRRKADALSMDNCKELERLTSLYKGG [chain 1 H136Q]
